Source: the RNAGym collection of RNA variant scans (doi:10.7554/elife.80360)

B1: HDV Ribozyme (parent)
chain: GGCCGGCAUGGUCCCAGCCUCCUCGCUGGCGCCGGCUGGGCAACAUUCCGAGGGGACCGUCCCCUCGGUAAUGGCGAAUGGGACCCA

Variants of: B1
Assay: self-cleavage, relative activity (ratio to wild type); higher = more cleavage; co-transcriptional

Variant	self-cleavage
C7G C22G	0.0791
G34C G76U	0.358
C3G C41A	0.217
G17A G55U	0.762
C21U C57U	0.18
C26U C62U	1.1
G28U G80U	0.1
U60A G73U	0.475
C41U U79C	0.332
C13G C24A	0.0594
G29C U69A	0.162
C32G G52A	0.254
C19A U69C	0.146
U46G G67U	0.302
A16U G55A	0.784
C49G C58A	0.764
G52U G53A	0.849
G10U U46A	0.489
G52U C64U	0.881
C18G C33A	0
C15G G35A	0.196
G29A U37C	0.17
C30A U72G	0.185
U60A G67A	0.95

Variant	self-cleavage
G35C C64G	0.426
C36G A71G	0.138
C32U C36A	0.17
G35A U72G	0.251
C32A G68C	0.113
A56G C61G	1.12
C4A G52U	0.213
G2C A77C	0
U9G C62U	0.731
G52A G53U	0.773
G55A C75G	0.136
A51U C85A	0.956
G2U C15A	0.0231
U27G G81A	0.597
G17C U60G	0.356
C41U C64G	0.635
C41U C64A	0.906
G59C A77G	1.13
C7G A70C	0.237
A77U C85G	0.299
A56U A78U	0.0573
G53U C75U	0.277
C3U U20C	0.113
G11A A77G	0.208

Variant	self-cleavage
G1C C3A	0.234
G5A G54A	0.177
G2A A56U	0.115
U12A C36U	0.0678
A71U G80C	0.185
C13U A78U	0
G1U	0.391
A70U A87C	0.98
G1A U69A	0.145
U20G A77C	0.178
U9C G67U	1.12
A70C G80A	0.177
G31C C49G	0.253
G34C C64A	0.0739
G11U G34A	0.21
C7A A77C	0.115
U47G U60A	1.33
C4A U9G	0.383
G53C C84G	0.696
C14U U23A	1.04
G31C A43C	0
C66G A83U	0.415
G6A C41A	0.326
G2A A71U	0.106

Variant	self-cleavage
C15A U23G	0.185
A8C A16C	1.07
U12A G80U	0.0968
U27G G31A	0.539
C13G U69G	0.111
G59U G68A	0.88
U9A G81C	0.35
G25A C30U	0.143
C30G C41A	0.0361
U20A G68C	0.0978
U20C G50A	0.306
G31A G55C	0.475
C85A	0.932
G25C G31A	0.135
G35C A45U	0.122
G6U A56U	0.703
C33G G81U	0.0354
G17U C22A	0.0831
G17C C49G	0.107
G17A C64U	0.722
A45U G68C	0.706
C3G C7G	0.0244
G11A C36A	0.0446
U72C A87G	0.712

Variant	self-cleavage
G53C C57G	1.14
G11A G76C	0.796
C41U U47C	0.799
C13G G82C	0.582
G80U G82C	0.332
G28A U65C	0.0415
C48A G68A	1.06
C26G G39A	0.18
G11A U27C	0.447
C18G C63G	0.199
C63A G80C	0.332
G54C A87G	0.936
G1U G2U	0.366
A51U C84A	0.916
G2A C15G	0.0277
G6C C48U	0.277
C7U G67U	0.684
U9G C19A	0.208
G1C C32U	0.192
U12G A42U	0.415
A70C C86A	1.11
G5A A51U	0.104
C13A U37C	0.131
C22U C33U	0.533

Variant	self-cleavage
C13A U23C	0.271
C61A A70C	1.01
G25C G40U	0.0563
C30G C63G	0.0923
C63G G73U	0.397
A8G U79C	0.256
U27A G74A	0.0437
C7G U69A	0.237
G17A C57G	0.674
C18G C26G	0.0831
A16G G31A	0.46
C41A G80C	0.164
G53A G73U	0.304
C26A C30A	0.491
U23C U69G	0.739
C62U A70C	0.734
C21U C41A	0.339
C32A C62G	0.0489
G11A A16U	0.723
C7A C64U	0.491
G10U G82C	0.089
C30U G74U	0.131
C36A G80C	0.178
G25U G67C	0.277

Variant	self-cleavage
G55A G81A	0.535
C13U C57U	0.853
C4G G5C	0.0594
C24G C33U	0.104
C21U A71U	0.572
C41A A42C	0.739
A8G A87C	1.18
G31A G74C	0.182
C32G U47G	0.0594
G39U C86G	0.784
G6C C44G	0.0692
C22U U27C	0.312
G38C C49G	0.156
G5C C44A	0
G11A U37C	0.381
C41G A51G	0.499
C7G A42U	0.0665
C21U A78C	0.058
C21U A78U	0.148
C3G G29U	0.0656
G28C C49A	0.166
C4U C75U	0.155
A43C A45U	0.554
